Patent US10071358B2, “Antibiotic preparation method and platform system based on same” (priority 2011, dated 2018)

How the values were obtained:
Type in all cases: cell-based
[1] = tested on: vancomycin-resistant enterococci (ATCC 700802); assay: inhibition / killing of vancomycin-resistant enterococci; conditions: FIG. 7 A
[2] = tested on: methicillin-resistant Staphylococcus aureus (ATCC BAA-42)
[3] = tested on: multi-drug resistant Pseudomonas aeruginosa (clinical isolated strain 13578 in West China Hospital); assay: inhibition / killing of multi-drug resistant Pseudomonas aeruginosa; conditions: FIG. 7 C

B1: wild-type colicin Ia: wild-type colicin Ia, bacteriocin secreted by Escherichia coli that forms ion channels (protein, UniProt P06716 1-626, looked up)
Colicin-Ia: MSDPVRITNPGAESLGYDSDGHEIMAVDIYVNPPRVDVFHGTPPAWSSFGNKTIWGGNEWVDDSPTRSDIEKRDKEITAYKNTLSAQQKENENKRTEAGKRLSAAIAAREKDENTLKTLRAGNADAADITRQEFRLLQAELREYGFRTEIAGYDALRLHTESRMLFADADSLRISPREARSLIEQAEKRQKDAQNADKKAADMLAEYERRKGILDTRLSELEKNGGAALAVLDAQQARLLGQQTRNDRAISEARNKLSSVTESLNTARNALTRAEQQLTQQKNTPDGKTIVSPEKFPGRSSTNHSIVVSGDPRFAGTIKITTSAVIDNRANLNYLLSHSGLDYKRNILNDRNPVVTEDVEGDKKIYNAEVAEWDKLRQRLLDARNKITSAESAVNSARNNLSARTNEQKHANDALNALLKEKENIRNQLSGINQKIAEEKRKQDELKATKDAINFTTEFLKSVSEKYGAKAEQLAREMAGQAKGKKIRNVEEALKTYEKYRADINKKINAKDRAAIAAALESVKLSDISSNLNRFSRGLGYAGKFTSLADWITEFGKAVRTENWRPLFVKTETIIAGNAATALVALVFSILTGSALGIIGYGLLMAVTGALIDESLVEKANKFWGI
For B1, the “minimum inhibitory concentration (MIC)” value [1] was 0.91 nmol, the “minimum inhibitory concentration (MIC)” value [2] was 0.23 nmol and the “minimum inhibitory concentration (MIC)” value [3] was 0.91 nmol.
